Test results: patent US20030032592A1 (published 2003)

T1: zyxin, amino acids 323-572, Gal4 activation-domain fusion (prey clone) (yeast (Saccharomyces cerevisiae); human, UniProt P04386 768-881; Q15942 323-572)
T1 construct: range 768-881;range 323-572; Clone from the human brain cDNA library in pACT2
T1 sequence (looked up): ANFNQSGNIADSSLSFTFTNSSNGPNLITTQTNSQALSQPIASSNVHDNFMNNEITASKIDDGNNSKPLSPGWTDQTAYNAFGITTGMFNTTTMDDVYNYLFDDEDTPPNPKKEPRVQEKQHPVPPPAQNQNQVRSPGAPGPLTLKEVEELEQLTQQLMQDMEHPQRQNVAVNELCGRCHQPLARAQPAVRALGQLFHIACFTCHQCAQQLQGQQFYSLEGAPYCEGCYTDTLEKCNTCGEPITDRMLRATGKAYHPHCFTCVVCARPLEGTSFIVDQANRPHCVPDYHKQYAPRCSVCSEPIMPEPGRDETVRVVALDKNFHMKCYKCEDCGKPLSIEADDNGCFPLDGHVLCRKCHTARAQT

B1: Oxysterol liver X receptor alpha (LXR-alpha), amino acids 95-156, Gal4 DNA-binding-domain fusion (bait) (receptor, UniProt P04386 1-147, looked up)
chain: MKLLSSIEQACDICRLKKLKCSKEKPKCAKCLKNNWECRYSPKTKRSPLTRAHLTEVESRLERLEQLFLLIFPREDLDMILKMDSLQDIKALLTGLFVQDNVNKDAVTDRLASVETDMPLTLRQHRISATSSSEESSNKGQRQLTVSNELCSVCGDKASGFHYNVLSCEGCKGFFRRSVIKGAHYICHSGGHCPMDTYMRRKCQECRLR
notes: range 1-147;range 95-156; Bait expressed in yeast from pGBTQ as a C-terminal fusion to Gal4 DBD
B2: CIR, amino acids 226-450, Gal4 activation-domain fusion (prey clone) (other, yeast (Saccharomyces cerevisiae);human, UniProt P04386 768-881, looked up, not shown: small tags and cut ends)
chain: ANFNQSGNIADSSLSFTFTNSSNGPNLITTQTNSQALSQPIASSNVHDNFMNNEITASKIDDGNNSKPLSPGWTDQTAYNAFGITTGMFNTTTMDDVYNYLFDDEDTPPNPKKERKLDRLEKKKKKKDRKKKKFQKSRSKHKKHKSSSSSSSSSSSSSSTETSESSSESESNNKEKKIQRKKRKKNKCSGHNNSDSEEKDKSKKRKLHEELSSSHHNREKAKEKPRFLKHESSREDSKWSHSDSDKKSRTHKHSPEKRGSERKEGSSRSHGREERSRRSRSRSPGSYKQRETRKRAQRNPGEEQSRRNDSRSHGTDLYRGEKMYREHPGGTHTKVTQRE
notes: range 768-881;range 226-450; Clone from the human brain cDNA library in pACT2; also called transcription factor CIR
B3: Homer-3, amino acids 182-354, Gal4 activation-domain fusion (prey clone) (other, yeast (Saccharomyces cerevisiae);human, UniProt P04386 768-881, looked up, not shown: small tags and cut ends)
chain: ANFNQSGNIADSSLSFTFTNSSNGPNLITTQTNSQALSQPIASSNVHDNFMNNEITASKIDDGNNSKPLSPGWTDQTAYNAFGITTGMFNTTTMDDVYNYLFDDEDTPPNPKKEEVQWEAEFFALQDSNNKLAGALREANAAAAQWRQQLEAQRAEAERLRQRVAELEAQAASEVTPTGEKEGLGQGQSLEQLEALVQTKDQEIQTLKSQTGGPREALEAAEREETQQKVQDLETRNAELEHQLRAMERSLEEARAERERARAEVGRAAQLLDVSLFELSELREGLA
notes: range 768-881;range 182-354; Clone from the human brain cDNA library in pACT2; The printed GenBank number has one digit too many
B4: EIF3S1, amino acids 94-254, Gal4 activation-domain fusion (prey clone) (other, yeast (Saccharomyces cerevisiae);human, UniProt P04386 768-881, looked up, not shown: small tags and cut ends)
chain: ANFNQSGNIADSSLSFTFTNSSNGPNLITTQTNSQALSQPIASSNVHDNFMNNEITASKIDDGNNSKPLSPGWTDQTAYNAFGITTGMFNTTTMDDVYNYLFDDEDTPPNPKKEEIKKRLEEPEEPKVLTPEEQLADKLRLKKLQEESDLELAKETFGVNNAVYGIDAMNPSSRDDFTEFGKLLKDKITQYEKSLYYASFLEVLVRDVCISLEIDDLKKITNSLTVLCSEKQKQEKQSKAKKKKKGVVPGGGLKATMKDDLADYGGYDGGYVQDY
notes: range 768-881;range 94-254; Clone from the human brain cDNA library in pACT2; also called translation initiation factor EIF3S1
B5: Oxysterol liver X receptor alpha (LXR-alpha), amino acids 95-277, Gal4 DNA-binding-domain fusion (bait) (receptor, UniProt P04386 1-147, looked up)
chain: MKLLSSIEQACDICRLKKLKCSKEKPKCAKCLKNNWECRYSPKTKRSPLTRAHLTEVESRLERLEQLFLLIFPREDLDMILKMDSLQDIKALLTGLFVQDNVNKDAVTDRLASVETDMPLTLRQHRISATSSSEESSNKGQRQLTVSNELCSVCGDKASGFHYNVLSCEGCKGFFRRSVIKGAHYICHSGGHCPMDTYMRRKCQECRLRKCRQAGMREECVLSEEQIRLKKLKRQEEEQAHATSLPPRASSPPQILPQLSPEQLGMIEKLVAAQQQCNRRSFSDRLRVTPWPMAPDPHSREARQQRFAHFTELAIVSVQEIVDFAKQLPG
notes: range 1-147;range 95-277; Bait made by PCR from brain cDNA and expressed in yeast from vector pGBTQ as a C-terminal fusion to Gal4 DBD

Key:
[1] = biological target: T1, zyxin, amino acids 323-572, Gal4 …; assay: yeast two-hybrid; prey clone identified for the bait of the same row (Ex. 4)
Description: (§1) A total human brain (person) cDNA library cloned into the yeast expression vector pACT2 was purchased from Clontech (human brain […] cDNA, cat. # HL4004AH), transformed into the yeast strain J692 (genotype of this strain: Mat a, ade2, his3, leu2, trp1, URA3::GAL1-1acZ LYS2::GAL1-HIS3 ga14del ga180del cyhR2), and selected for the ability to drive leucine synthesis. In these yeast cells, each cDNA is expressed as a fusion protein with the transcription activation domain of the transcription factor Ga14 (amino acids 768 to 881) and a 9 amino acid hemagglutinin epitope tag. J693 cells (Mat α type) expressing the bait were then mated with J692 cells ([…]) expressing proteins from the brain library. The resulting diploid yeast cells expressing proteins interacting with the bait protein were selected for the ability to synthesize tryptophan, leucine, histidine, and β-galactosidase. DNA was prepared from each clone, transformed by electroporation into E. coli strain KC8 (Clontech KC8 electrocompetent cells, cat. # C2023-1), and the cells were selected on ampicillin-containing plates in the absence of either tryptophane (selection for the bait plasmid) or leucine (selection for the brain library plasmid). DNA for both plasmids was prepared and sequenced by di-deoxynucleotide chain termination method. […]

[2] = biological target: T2, Oxysterol liver X receptor alpha (LXR-alpha), amino acids 156-448, Gal4 DNA-binding-domain fusion (bait) (yeast (Saccharomyces cerevisiae), UniProt P04386 1-147; Q13133 156-447); assay: yeast two-hybrid; prey clone identified for the bait of the same row (Ex. 12)
T2 construct: range 1-147;range 156-448; Bait expressed in yeast from pGBTQ as a C-terminal fusion to Gal4 DBD
Description: as §1

[3] = biological target: B5; assay: yeast two-hybrid; prey clone identified for the bait of the same row (Ex. 6)
Description: as §1

[4] = biological target: T3, Oxysterol liver X receptor alpha (LXR-alpha), amino acids 257-448, Gal4 DNA-binding-domain fusion (bait) (yeast (Saccharomyces cerevisiae), UniProt P04386 1-147; Q13133 257-447); assay: yeast two-hybrid; prey clone identified for the bait of the same row (Ex. 8)
T3 construct: range 1-147;range 257-448; Bait expressed in yeast from pGBTQ as a C-terminal fusion to Gal4 DBD
Description: as §1

[5] = biological target: T2, Oxysterol liver X receptor alpha …; assay: yeast two-hybrid; prey clone identified for the bait of the same row (Ex. 9)
Description: as §1

[6] = biological target: T4, PSMD11, amino acids 87-422, Gal4 activation-domain fusion (prey clone) (yeast (Saccharomyces cerevisiae); human, UniProt P04386 768-881; O00231 87-422); assay: yeast two-hybrid; prey clone identified for the bait of the same row (Ex. 10)
T4 construct: range 768-881;range 87-422; Clone from the human brain cDNA library in pACT2; also called proteasome subunit PSMD11
Description: as §1

B1: binds [1].

B2: binds [2].

B3: binds [3].

B4: binds [4]; binds [5].

B5: binds [6].
